# Legend:
# [1] = molecular target: the molecule itself; test: cryo-EM structure; SbmA in complex with Fab S11-1 in lipid nanodiscs (MSP1E3D1; DOPC:POPG:POPO-cardiolipin 13:4:1), SEC in 20 mM MES pH 5.5, 300 KCl; 300 kV
# [2] = molecular target: T1, SbmA (Escherichia coli, UniProt P0AFY6); test: cryo-EM structure; SbmA incubated with SB2 in a 1:2 molar ratio, 30 min, 4 °C; complex purified by SEC in TBS pH 7.4, 0.05% DDM; 200 kV (Table 1 names lipid nanodiscs for identifier D); settings: both partners purified
# T1 construct: SbmA, inner membrane peptide transporter of Escherichia coli, cloned from genomic DNA into pBXC3H; Homodimer; no cleavage is described; also called SbmA-like peptide transporter (SLiPT) family member; source: E. coli MC1061, purified (Nickel Sepharose, SEC) in DDM; for some samples reconstituted into MSP1E3D1 lipid nanodiscs
# [3] = molecular target: T1, SbmA; test: as above; settings: both partners purified; remark: listed apart in the source
# [4] = molecular target: T1, SbmA; test: cryo-EM structure; SbmA in complex with Fab S11-1 in lipid nanodiscs (MSP1E3D1; DOPC:POPG:POPO-cardiolipin 13:4:1), SEC in 20 mM MES pH 5.5, 300 KCl; 300 kV; settings: both partners purified
binder,measurement,setting,value
"SbmA (natural protein, Escherichia coli, SbmA, inner membrane peptide transporter of Escherichia coli, cloned from genomic DNA into pBXC3H; Homodimer; no cleavage is described; also called SbmA-like peptide transporter (SLiPT) family member; source: E. coli MC1061, purified (Nickel Sepharose, SEC) in DDM; for some samples reconstituted into MSP1E3D1 lipid nanodiscs) MFKSFFPKPGTFFLSAFVWALIAVIFWQAGGGDWVARITGASGQIPISAARFWSLDFLIFYAYYIVCVGLFALFWFIYSPHRWQYWSILGTALIIFVTWFLVEVGVAVNAWYAPFYDLIQTALSSPHKVTIEQFYREVGVFLGIALIAVVISVLNNFFVSHYVFRWRTAMNEYYMANWQQLRHIEGAAQRVQEDTMRFASTLENMGVSFINAIMTLIAFLPVLVTLSAHVPELPIIGHIPYGLVIAAIVWSLMGTGLLAVVGIKLPGLEFKNQRVEAAYRKELVYGEDDATRATPPTVRELFSAVRKNYFRLYFHYMYFNIARILYLQVDNVFGLFLLFPSIVAGTITLGLMTQITNVFGQVRGAFQYLINSWTTLVELMSIYKRLRSFEHELDGDKIQEVTHTLS",stoichiometry N,[1],2
"Sybody2 (VHH, synthetic nanobody (sybody, 16 kDa) selected against biotinylated SbmA T403C; also called SB2; Sb2) VHH: QVQLVESGGGLVQAGGSLRLSCAASGFPVIANVMYWYRQAPGKEREWVAAIDSSGEYAYYADSVKGRFTISRDNAKNTVYLQMNSLKPEDTAVYYCYVKVGSHYWGQGTQVTVSA",stoichiometry N,[2],1 sybody per SbmA dimer
same,stoichiometry N,[3],2 Sb per SbmA dimer
"Fab fragment Fab S11-1 (Fab, V domains shown) VH: LKLLDSGAELVKPGASVKLSCTASGFNIKDTYMYWVKQRPDQGLEWIGRIDPANGNSKYDPKFQGKATITADTSSNTAYLQVSSLTSEDTAVYYCARWLVRGRRGTMDYWGQGTSVTVSS VL: DIVMTQSPAILSASPGEKVTMTCRASSSVSYMHWYQQKPGSSPKPWIYATSNLASGVPARFSGSGSGTSYSLTISRVEAEDAATYYCQQWSSNPRTFGGGTKLEIK",stoichiometry N,[4],1 Fab per SbmA dimer

# Source: paper PMC13316013, “Shared structural mechanisms of alternating access between the secondary peptide transporter SbmA and ABC transporters” (Nature Communications, 2026)
